This data set is described as follows: in vivo. Conditions: male, NODSCID 1L2RγKO, mouse, iv, total radioactivity.

The results in this text go back to patent US11504441B2, “Radiolabeled compounds targeting the prostate-specific membrane antigen” (PROVINCIAL HEALTH SERVICES AUTHORITY, priority 2019, dated 2022).

SMILES strings stand for the structures.

Experimental: LNCaP cell line was obtained from ATCC (LNCaP clone FGC, CRL-1740). […] Cells were cultured in PRM I 1640 medium supplemented with 10% FBS, penicillin (100 U/mL) and streptomycin (100 μg/mL) at 37° C. in a humidified incubator containing 5% CO2. Cells grown to 80-90% confluence were then washed with sterile phosphate-buffered saline (1× PBS pH 7.4) and collected by trypsinization. The collected cells concentration was counted with a Hausser Scientific (Horsham, Pa.) Hemacytometer.
Imaging and biodistribution experiments were performed using NODSCID 1 L2RγKO male mice. Mice were anesthetized by inhalation with 2% isoflurane in oxygen, and implanted subcutaneously with 1×10^7 LNCaP cells behind left shoulder. Mice were imaged or used in biodistribution studies when the tumor grew up to reach 5-8 mm in diameter during 5-6 weeks.
PET imaging experiments were conducted using Siemens Inveon micro PET/CT scanner. Each tumor bearing mouse was injected 6-8 MBq of Ga-68 labeled tracer through the tail vein under anesthesia (2% isoflurane in oxygen). The mice were allowed to recover and roam freely in their cage. After 50 min, the mice were sedated again with 2% isoflurane in oxygen inhalation and positioned in the scanner. A 10-min CT scan was conducted first for localization and attenuation correction after segmentation for reconstructing the PET images. Then, a 10-min static PET imaging was performed to determined uptake in tumor and other organs. The mice were kept warm by a heating pad during acquisition. For biodistribution studies, the mice were injected with the radiotracer as described above. The mice was anesthetized with 2% isoflurane inhalation, and euthanized by CO2 inhalation. Blood was withdrawn immediately from the heart, and the organs/tissues of interest were collected. The collected organs/tissues were weighed and counted using a Perkin Elmer (Waltham, Mass.) Wizard2 2480 gamma counter. The uptake in each organ/tissue was normalized to the injected dose using a standard curve, and expressed as the percentage of the injected dose per gram of tissue (% ID/g).
LNCaP cell line was obtained from ATCC (LNCaP clone FGC, CRL-1740). […] Cells were cultured in PRM I 1640 medium supplemented with 10% FBS, penicillin (100 U/mL) and streptomycin (100 μg/mL) at 37° C. in a humidified incubator containing 5% CO2. Cells grown to 80-90% confluence were then washed with sterile phosphate-buffered saline (1× PBS pH 7.4), and collected by trypsinization. The collected cell concentration was counted with a Hausser Scientific (Horsham, Pa.) Hemacytometer.
Imaging and biodistribution experiments were performed using NODSCID 1L2RγKO male mice. Mice were anesthetized by inhalation with 2% isoflurane in oxygen, and implanted subcutaneously with 1×10^7 LNCaP cells behind left shoulder. Mice were imaged or used in biodistribution studies when the tumor grew up to reach 5-8 mm in diameter during 5-6 weeks.
PET imaging experiments were conducted using Siemens Inveon micro PET/CT scanner. Each tumor bearing mouse was injected 6-8 MBq of Ga-68 or F-18 labeled tracer through the tail vein under anesthesia (2% isoflurane in oxygen). The mice were allowed to recover and roam freely in their cage. After 50 min, the mice were sedated again with 2% isoflurane in oxygen inhalation and positioned in the scanner. A 10-min CT scan was conducted first for localization and attenuation correction after segmentation for reconstructing the PET images. Then, a 10-min static PET imaging was performed to determined uptake in tumor and other organs.
For biodistribution studies, the mice were injected with the radiotracer as described above.

For the compound `O=C(O)CC[C@H](NC(=O)N[C@@H](CCCCNC(=O)[C@H](Cc1c2ccccc2cc2ccccc12)NC(=O)C1CCC(CNC(=O)CN2CCN(CC(=O)O)CCN(CC(=O)O)CCN(CC(=O)O)CC2)CC1)C(=O)O)C(=O)O` (some centres unmarked) [HTK03041], the tissue uptake at 1 h (kidney uptake) came out at 170 %ID/g.

As for `O=C(O)CC[C@H](NC(=O)N[C@@H](CCCCNC(=O)[C@H](Cc1c2ccccc2cc2ccccc12)NC(=O)[C@H]1CC[C@H](CNC(=O)CN2CCN(CC(=O)O)CCN(CC(=O)O)CCN(CC(=O)O)CC2)CC1)C(=O)O)C(=O)O` [68Ga-HTK03041, metal not drawn], the tissue uptake at 1 h runs as follows: (Adrenal glands uptake) 8.9 ± 2.56 %ID/g; (Blood uptake) 1.43 ± 0.3 %ID/g; (Bone uptake) 1.29 ± 0.45 %ID/g; (Brain uptake) 0.1 ± 0.05 %ID/g; (Fat uptake) 2.06 ± 0.59 %ID/g; (Heart uptake) 1.82 ± 0.21 %ID/g. Further, the tissue uptake at 1 h by setting is: (Intestine uptake) 1.14 ± 0.18 %ID/g; (Kidneys uptake) 170 ± 26.4 %ID/g; (Lacrimal uptake) 2.44 ± 1.79 %ID/g; (Liver uptake) 1.38 ± 0.25 %ID/g; (Lungs uptake) 4.32 ± 0.62 %ID/g; (Muscle uptake) 0.75 ± 0.09 %ID/g. Besides, the tissue uptake at 1 h stood at 1.47 ± 0.16 %ID/g (Pancreas uptake); 4.99 ± 0.88 %ID/g (Salivary uptake); 1.03 ± 0.27 %ID/g (Seminal uptake); 8.95 ± 3.22 %ID/g (Spleen uptake); 0.41 ± 0.11 %ID/g (Stomach uptake); 1.36 ± 0.45 %ID/g (Tail uptake). Moreover, the tissue uptake at 1 h was 1.34 ± 0.22 %ID/g (Testes uptake), 2.48 ± 0.44 %ID/g (Thyroid uptake) and 23.1 ± 6.11 %ID/g (Tumor uptake). Also, the excreta dose per gram or mL at 1 h (Urine uptake) came out at 173 ± 93 %ID/g.
